Measurements taken from the supplement of paper PMC9170038.

Test system: MS2 coat protein
Test: apparent KD of MS2 coat protein; designed switch direction (-1 OFF switch, 1 ON switch): 1; higher = weaker reporter binding
Summary of the method: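 SNAP-549-labelled MS2 coat protein was titrated, doubling from 0.7 or 1.5 nM to 3 µM, over designed RNA switches transcribed on Illumina chips by stalled E. coli RNA polymerase. Runs were done without input, with 200 uM small-molecule ligand, or with an oligonucleotide input. Apparent KD is the per-design median over clusters of curve-fitted normalised fluorescence.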

[1] = Eterna round: R95, input ligand: FMN 200 uM
[2] = Eterna round: R95, input ligand: microRNA oligo, concentration not stated
[3] = Eterna round: R95, input ligand: none
[4] = input ligand: microRNA oligo, concentration not stated

| Sequence | apparent KD of MS2 coat protein [1] [nM] | apparent KD of MS2 coat protein [2] [nM] | apparent KD of MS2 coat protein [3] [nM] | apparent KD of MS2 coat protein (input ligand: FMN 200 uM) [nM] | apparent KD of MS2 coat protein [4] [nM] | apparent KD of MS2 coat protein (input ligand: none) [nM] |
| --- | --- | --- | --- | --- | --- | --- |
| GGAGCCGGUACUGAGGAUAUUUAUAUUAAAACAUGAGGAUCACCCAUGUAGGCCAGAAGGCCUUGGGAGAAGGCAGAUCGGCUCC [Biseusra - 5] (puzzle: Same State 2) | 15.1 | 46.2 | 72.8 | – | – | – |
| GGAGCUGGCACUGAGGAUAUUCAUAUUUAAACAUGAGGAUCACCCAUGUAGGCCAGAAGGCCUUGGGAGAAGGCAGGUCGGCUCG [salish99_ss2_r3_085] (puzzle: Same State 2) | 24.6 | 254 | 354 | – | – | – |
| GGAGGAUGAGCGUAGGAUAUAGGAGGAGUGACAUGAGGAUCACCCAUGUAGUAGGAGGGAAAGGGCUAGAAGGACGAGGAAGAGG [JR_SS2_Sub071] (puzzle: Same State 2) | 56.1 | 51.2 | 70.2 | – | – | – |
| GGAUGAUAGACAGGAUAUUGAAUGUAAAUAGGACAAGAAGGGUCAAUGAUAUAAACGACCAGUUACAUGAGGAUCACCCAUGUU [JR_SSNG1_Sub023] (Eterna round: R96, puzzle: Same State NG 1) | – | – | – | 37.1 | 30.5 | 38.9 |
| GGAUGAUUAACAGGAUAUCAUUUGUAAAUUGGUUGAGAAGGGUUAAUGAUUUAAACGACCUGUUACAUGAGGAUCACCCAUGUU [SameState NG1 #1] (Eterna round: R96, puzzle: Same State NG 1) | – | – | – | – | 45.6 | – |
| GGCCUGGGUCAAGGAUAUGCUACCGUUUCGGUAGCAGAAGGUGAUCACAUGAGGAUCACCCAUGUUUACGCGAAGACGCGCGCC (Eterna round: R96, puzzle: Same State NG 1) | – | – | – | 526 | 59.3 | 405 |
| GGCUGCGUUGUGAAGGAUAUCCGCGUCUGGACAUGAGGAUCACCCAUGUAUGCUUGGAUCGUGCCGGAGAAGGUCACGAAUGAUU [JR_SS002_Sub1213] (Eterna round: R96, puzzle: Same State 2) | – | – | – | 14 | 29.4 | 55.2 |
| GGGUAGGAAUUACAGGAUAUAUAGAAGUUGACAUGAGGAUCACCCAUGUAUGGGUUGGGAGGAGGAUAGAAGGGUAUGAGAGGUG [JR_SS2_Sub032] (puzzle: Same State 2) | 125 | 123 | 113 | – | – | – |
| GGGUAGGAGCUACAGGAUAUAUAGAAGUUGACAUGAGGAUCACCCAUGUAAGGGUACGGAGGCGGAUAGAAGGGUAUGGGAGGUG [JR_SS2_Sub033] (puzzle: Same State 2) | 55.5 | 54.2 | 64.9 | – | – | – |
| GGUAAACAUGAGGAUCACCCAUGUAAUAUAAUGGGAGGAUAUCUGAAUUAAUUAAAUUAAGGAGAAGGCCUAAUGG [Mat - Same State 1 - Mod of Eli - D49] (puzzle: Same State 1) | 248 | 245 | 321 | – | – | – |
| GGUAAGAAUUAAGGAUAUCGAGUACAUAUGUUUAACAUGAGGAUCACCCAUGUGGGUUGCGGUAUCGAGAAGGUAAAUUAUAAG [Mat - same State NG 2 - JL mod - D63] (Eterna round: R96, puzzle: Same State NG 2) | – | – | – | 43.3 | 29.7 | 50.8 |
| GGUAGGUUACUACCAAACAUGAGGAUCACCCAUGUAAAUGGGAAGGAUAUGGUACCUAUUUGGUACCAGAAGGUCCAAAUAAUU [Mat - Same State NG 3 - JL Mod - D95] (Eterna round: R96, puzzle: Same State NG 3) | – | – | – | 180 | 327 | 1410 |
| GGUAGGUUACUACCAAACAUGAGGAUCACCCAUGUAAGUGGGAAGGAUAUGGUACCUAAAAGGUACCAGAAGGUCCAUAUAGUU [Mat - Same State NG 3 - JL Mod - D99] (Eterna round: R96, puzzle: Same State NG 3) | – | – | – | 202 | 228 | 711 |
| GGUAGGUUACUACCAACACAUGAGGAUCACCCAUGUUAGUGGGAGGAUAUGGUACCUAUUUGGUACCAGAAGGCCUUGUUAAUU [Fiskers NG3ss - 14] (Eterna round: R96, puzzle: Same State NG 3) | – | – | – | 43.7 | 62.8 | 87.6 |
| GGUAGGUUACUACCAAUACAUGAGGAUCACCCAUGUUGUCAUGAGGAUAUGGUACCUAUUUGGUACCAGAAGGCAUGUAUAAUU [Fiskers NG3ss - 20] (Eterna round: R96, puzzle: Same State NG 3) | – | – | – | 49.6 | 59.5 | 62 |
| GGUAGGUUACUACCAAUCACAUGAGGAUCACCCAUGUUGUGGGAGGAUAUGGUACCUAUUUGGUACCAGAAGGCCUUAUUAAUU [Fiskers NG3ss - 11] (Eterna round: R96, puzzle: Same State NG 3) | – | – | – | 74.8 | 55.6 | 85.2 |
| GGUAUUAACACAGGAUAUGCUUACGAAACGUAAGCAGAAGGGUGAACAUGAGGAUCACCCAUGUAUGUACCAGGGCGUGAGCCC [JL SSNG1 1.73] (Eterna round: R96, puzzle: Same State NG 1) | – | – | – | 137 | 510 | 1040 |
| GGUCCAGCCUGAGCUGGACAAAAGCAUGUACAUGAGGAUCACCCAUGUCAUGUACAAGCUUUUUGCUCGUCUUAAAG [Mat - hsa-mir-208a - 85] (puzzle: Sensor for hsa-mir-208a) | 195 | 18.1 | 367 | – | – | – |
| GGUCCAGCCUGAGCUGGACAAAAGCAUGUACAUGAGGAUCACCCAUGUUCAUGUACAAGCUUUUUGCUCGUCUUAGG [salish99_208a_r3_070] (puzzle: Sensor for hsa-mir-208a) | 602 | 19.8 | 401 | – | – | – |
| GGUCCAGCCUGAGCUGGACUACAGCAUGUACAUGAGGAUCACCCAUGUCAUGUACAAGAAUGUUGUUUGUCUUAAAA [Sensorship 8 - Jieux - Sensor for hsa-mir-208a] (puzzle: Sensor for hsa-mir-208a) | 88.1 | 64.3 | 118 | – | – | – |
| GGUCCAUCAUGAGGAUAUGGCACCUUAUUGGUGCCAGAAGGCAUGUCUAUAGACAUGAGGAUCACCCAUGUUAUAAAUUGGACC [Eli NG1ss - 92] (Eterna round: R96, puzzle: Same State NG 1) | – | – | – | 20 | 98.6 | 111 |
| GGUCGGACUCACAUGAGGAUCACCCAUGUUGGCGAAAGCCGGCAGGAUAUCUGUCCGAAAAGGUCAGAGAAGGGCUAACCGACC [Fiskers NG3ss - 60] (Eterna round: R96, puzzle: Same State NG 3) | – | – | – | 65.7 | 186 | 188 |
| GGUCGGACUCACAUGAGGAUCACCCAUGUUGGCGAAAGCCGGCAGGAUAUCUGUCCGAAAAGGUCAGAGAAGGGUCAACCGACC [Fiskers NG3ss - 59] (Eterna round: R96, puzzle: Same State NG 3) | – | – | – | 322 | 82.4 | 267 |
| GGUGCAAUUAACGCCUACAUGAGGAUCACCCAUGUAUGUAGGCAGGAUAUCGUUUGCUUUGCAAACGAGAAGGGCUAUAGUACC [JL SSNG3 1.15] (Eterna round: R96, puzzle: Same State NG 3) | – | – | – | 54.4 | 130 | 157 |
| GGUGCCAAUAAAGCCUACAUGAGGAUCACCCAUGUAUGUAGGUAGGAUAUCGUUUGCAAAGCAAACGAGAAGGGCCUAGGCACC [Mat - Same State NG 3 - JL Mod - D58] (Eterna round: R96, puzzle: Same State NG 3) | – | – | – | 27 | 43.7 | 53.1 |
| GGUGGGUUACUACCCACACAUGAGGAUCACCCAUGUAUUGGGAAGGAUAUGGUACCUAUUUGGUACCAGAAGGUCCUGAUGGUG [SS-NG3-LRO15] (Eterna round: R96, puzzle: Same State NG 3) | – | – | – | 1280 | 312 | 1610 |
| GGUGGGUUACUACCCACACAUGAGGAUCACCCAUGUAUUGGGAAGGAUAUGGUGCCUAUUUGGUACCAGAAGGUCCUGAAGGUG [SS-NG3-LRO17] (Eterna round: R96, puzzle: Same State NG 3) | – | – | – | 980 | 571 | 1770 |
| GGUGGGUUACUACCCACACAUGAGGAUCACCCAUGUUUUGGGAAGGAUAUGGUACCUAUUUGGUACCAGAAGGUCCUGUUGGUG [SS-NG3-LRO14] (Eterna round: R96, puzzle: Same State NG 3) | – | – | – | 702 | 445 | 1020 |
| GGUUUAGUCGAUUGCCGUUGCACUCGAAAACAUGAGGAUCACCCAUGUUUGGGACAAGCUUUGCUCCUCGUCUUUCC [Sous] (puzzle: Sensor for hsa-mir-208a) | 240 | 67.1 | 453 | – | – | – |
| GUAAAACAUGAGGAUCACCCAUGUAAUAUAAUGGGAGGAUAUCUGAUUUAAUUUAAUUUAAGAGAAGGCCUAAAUG [Mat - Same State 1 - Mod of Eli - D57] (puzzle: Same State 1) | 39.6 | 268 | 372 | – | – | – |
